Paper PMC6212398 (2018)
Where two headings read alike, the source gives them in different places.

Assays:
Assay in all cases: ITC
[1] = molecular target: T1, Hsp27 alpha-crystallin domain (ACD, residues Q80–S176) (human, UniProt P04792 80-176)
[2] = molecular target: T1, Hsp27 alpha-crystallin domain (ACD, …); remark: listed apart in the source
[3] = molecular target: Hsp27 GPG (isoleucine and valine of the IPV motif mutated to glycine) (human, UniProt P04792 1-205, isoleucine of the IPV (Ile179 as printed in p-0007) to glycine)
Hsp27 GPG (isoleucine and valine of the IPV motif mutated to glycine), sequence (P04792 other isoform, or with tags, fused parts or gaps with the stated changes): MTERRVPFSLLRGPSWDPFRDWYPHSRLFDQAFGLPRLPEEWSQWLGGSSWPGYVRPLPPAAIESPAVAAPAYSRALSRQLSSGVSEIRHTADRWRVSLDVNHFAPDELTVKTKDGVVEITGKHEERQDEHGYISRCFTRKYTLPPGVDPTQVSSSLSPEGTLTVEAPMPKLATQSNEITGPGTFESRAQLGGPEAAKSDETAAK

T1 sequence (P04792 80-176): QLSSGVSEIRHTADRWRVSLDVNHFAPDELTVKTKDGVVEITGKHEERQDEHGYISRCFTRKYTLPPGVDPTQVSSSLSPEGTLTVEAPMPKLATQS

Kd [1] | Kd [2] | Kd [3] | Binder
12.6 µM |  |  | EITAPVTHE (EITAPVTHE. The paper numbers the peptide from E176, so printed Ile179 (I of IPV) is UniProt I181. Peptide termini chemistry is not stated.) [Hsp27 IPV H peptide with Ile179 mutated to alanine]
 | 7.3 µM | 6.8 µM | EITIPVTHE [Hsp27 IPV H peptide (EITIPVTHE)]

Continued, binder first:

Binder | Kd [1] | Kd [2] | Kd [3]
EITIAVTHE [Hsp27 IPV H peptide with the second X residue (Pro) of IXIXV mutated to alanine (EITIAVTHE)] | 4.23 µM |  | 
EITIPVAHE (synthetic 9-mer; alanine-scan variant of the His-containing IPV peptide … (gives EITIPVAHE). The T184 label fits UniProt numbering, not the shifted numbering printed in the text. Termini not stated) [T184A] | 9.43 µM |  | 
